Laboratory results reported in paper PMC5696030.

Experiments:
Assay in all cases: AUC
Gly189Lys NFU1 (human) = Gly189Lys NFU1 (human) (UniProt Q9UMS0)
Gly189Arg NFU1 (human) = Gly189Arg NFU1 (human) (UniProt Q9UMS0)
[1] = biological target: native human NFU1 (human) (UniProt Q9UMS0)
Gly189Ala NFU1 (human) = Gly189Ala NFU1 (human) (UniProt Q9UMS0)

“Gly189Lys NFU1 (from UniProt Q9UMS0 10-254) (natural protein)” was tested, and the percent dimer (Gly189Lys NFU1 (human)) was 5%, the percent dimer with 1 mM TCEP (Gly189Lys NFU1 (human)) was 6% and the percent monomer with 1 mM TCEP (Gly189Lys NFU1 (human)) was 89%. The stoichiometry N (Gly189Lys NFU1 (human)) was 2.

For “Gly189Arg NFU1 (from UniProt Q9UMS0 10-254) (natural protein)”, the percent dimer (Gly189Arg NFU1 (human)) was 4%, the percent dimer with 1 mM TCEP (Gly189Arg NFU1 (human)) was 4% and the percent monomer (Gly189Arg NFU1 (human)) was 95%. It also gave a percent monomer with 1 mM TCEP (Gly189Arg NFU1 (human)) of 94% and a stoichiometry N (Gly189Arg NFU1 (human)) of 2.

For “native human NFU1 (from UniProt Q9UMS0 10-254) (natural protein)”, the percent dimer [1] was 52%, the percent dimer with 1 mM TCEP [1] was 44% and the percent monomer [1] was 45%. It also gave a percent monomer with 1 mM TCEP [1] of 44%.

“Gly189Ala NFU1 (from UniProt Q9UMS0 10-254) (natural protein)” gave a percent dimer (Gly189Ala NFU1 (human)) of 3%, a percent dimer with 1 mM TCEP (Gly189Ala NFU1 (human)) of 3% and a percent monomer (Gly189Ala NFU1 (human)) of 95%. For the same substance, the percent monomer with 1 mM TCEP (Gly189Ala NFU1 (human)) was 95% and the stoichiometry N (Gly189Ala NFU1 (human)) was 2.
